Source: the supplement of paper PMC12667976

B1: library; numbered along this chain (parent)
chain: MATDAALRRLLRLHRTEIAVAVDSAFPLLHALADHDVVPEDKFQETLHLKEKEGCPQAFHALLSWLLTQDSTAILDFWRVLFKDYNLERYGRLQPILDSFPKDVDLSQPRKGRKPPAVPKALVPPPRLPTKRKASEEARAAAPAALTPRGTASPGSQLKAKPPKKPESSAEQQRLPLGNGIQTMSASVQRAVAMSSGDVPGARGAVEGILIQQVFESGGSKKCIQVGGEFYTPSKFEDSGSGKNKARSSSGPKPLVRAKGAQGAAPGGGEARLGQQGSVPAPLALPSDPQLHQKNEDECAVCRDGGELICCDGCPRAFHLACLSPPLREIPSGTWRCSSCLQATVQEVQPRAEEPRPQEPPVETPLPPGLRSAGEEVRGPPGEPLAGMDTTLVYKHLPAPPSAAPLPGLDSSALHPLLCVGPEGQQNLAPGARCGVCGDGTDVLRCTHCAAAFHWRCHFPAGTSRPGTGLRCRSCSGDVTPAPVEGVLAPSPARLAPGPAKDDTASHEPALHRDDLESLLSEHTFDGILQWAIQSMARPAAPFPS

Variants of: B1
Assay: AIRE transcriptional activation functional score (insulin promoter-GFP; nonsense median 0, synonymous median 1) (normalised score); higher = higher AIRE activity (more reporter activation)
Conditions: with insulin promoter-GFP reporter in HEK293
Outline: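 Codon-optimized AIRE NNN-codon libraries (three regions) were integrated by Bxb1 recombinase into Flp-In T-REx HEK293 landing-pad cells carrying an insulin core promoter-GFP reporter. Integrants (mCherry+, BFP−) sorted at day 7 were expanded 7 days; top 10% GFP and unselected integrant populations were tile-sequenced. Functional score is select versus non-select variant enrichment, wild-type subtracted. Variants needed 10 counts per million in non-select; scores were rescaled to nonsense median 0 and synonymous median 1, then averaged over biological replicates.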

AIRE transcriptional activation functional score: each site, then its substitutions
F318: Y 1.07 | L 1.05 | M 1.54 | K 1.39 | N 1.45 | G 1.39 | A 0.96 | Q 1.31 | T 1.31 | W 0.907 | R 1.47 | C 1.32 | V 0.874 | H 1.42 | I 1.12 | S 1.19 | E 1.34 | P 1.21 | D 1.02
A321: T 0.918 | L 0.961 | V 1.05 | D 0.763 | C 0.948 | H 0.857 | P 1.3 | E 0.854 | K 1.09 | N 1.06 | S 1.01 | R 0.843 | M 1.58 | W 1.14 | I 1.33 | G 1.21 | Y 0.541 | Q 1.11 | F 1.1
I309: F 1.18 | C 0.782 | H 0.916 | P 1.07 | W 1.55 | N 1.23 | K 0.472 | R 0.877 | S 1.35 | V 1.14 | T 0.922 | Y 1.19 | G 1.11 | M 0.866 | A 0.827 | Q 0.905 | D 0.964 | L 0.505 | E 1.43
A317: L 1.01 | I 0.854 | S 0.689 | H 1.06 | E 1.37 | Q -0.307 | R 0.922 | Y 0.503 | V 0.416 | F 0.813 | M 0.781 | T 0.717 | G 0.974 | W 1.53 | C 1.28 | K 0.241 | N 0.865 | P 1.23 | D 1.25
L320: M 1.03 | H 0.847 | Y 1.09 | D 1.14 | A 1.19 | C 0.84 | S 0.896 | I 0.729 | T 1.13 | F 1.19 | W 0.685 | E 1.22 | R 1.16 | P 0.869 | K 0.922 | Q 0.88 | N 0.948 | V 0.976 | G 0.879
P315: G 0.618 | M 1.22 | Q 1.05 | L 0.924 | I 1 | T 0.854 | Y 0.976 | R 0.972 | N 1.1 | H 0.985 | V 1.12 | K 0.481 | A 0.558 | W 2.51 | E 0.802 | C 0.985 | F 0.835 | D 1.08 | S 1.14
L308: E 1.02 | T 0.853 | A 1.06 | G 0.784 | C 1.43 | P 0.912 | M 1.11 | S 1.12 | K 0.0443 | R 0.932 | N 0.45 | H 1.33 | F 0.909 | D 0.755 | Y 0.412 | W -0.607 | Q 1.3 | I 0.905 | V 1.16
R316: M 1.04 | H 1.36 | N 0.525 | E 1.28 | V 0.904 | D 1.42 | A 0.77 | F 0.43 | T 1.06 | G 1.33 | S 1.19 | Y 1.36 | L 0.804 | I 1.26 | K 1.03 | P 1.14 | W 1.28 | Q 1.05 | C 1.22
C322: L 0.951 | T 1.21 | N 0.919 | P 1.25 | Q 1.2 | R 0.999 | D 1.77 | K 1.21 | I 0.327 | M 1.1 | F 0.737 | S 1.41 | E 1.77 | H 1.5 | G 1.24
